Test results as given in article PMC5019495.

How the values were obtained:
Siz1^(167–449) (yeast) = Siz1^(167–449) (yeast) (UniProt Q04195)
[1] = molecular target: Siz1^(167–449)-ΔN18Smt3^K19R/D68RΔGG97/98-L-E-His6 (yeast) (UniProt Q04195)
[2] = molecular target: Siz1^(167–449)-ΔN18Smt3^K19RΔGG97/98-L-E-His6 (yeast) (UniProt Q04195)
Siz1^(167–508) (yeast) = Siz1^(167–508) (yeast) (UniProt Q04195)
[3] = molecular target: Siz1^(167–508)-ΔN18Smt3^K19R/D68RΔGG97/98-L-E-His6 (yeast) (UniProt Q04195)
Sequence of Siz1^(167–508)-ΔN18Smt3^K19R/D68RΔGG97/98-L-E-His6 (yeast) (Q04195 whole entry, looked up, stated change not applied, tested part not stated): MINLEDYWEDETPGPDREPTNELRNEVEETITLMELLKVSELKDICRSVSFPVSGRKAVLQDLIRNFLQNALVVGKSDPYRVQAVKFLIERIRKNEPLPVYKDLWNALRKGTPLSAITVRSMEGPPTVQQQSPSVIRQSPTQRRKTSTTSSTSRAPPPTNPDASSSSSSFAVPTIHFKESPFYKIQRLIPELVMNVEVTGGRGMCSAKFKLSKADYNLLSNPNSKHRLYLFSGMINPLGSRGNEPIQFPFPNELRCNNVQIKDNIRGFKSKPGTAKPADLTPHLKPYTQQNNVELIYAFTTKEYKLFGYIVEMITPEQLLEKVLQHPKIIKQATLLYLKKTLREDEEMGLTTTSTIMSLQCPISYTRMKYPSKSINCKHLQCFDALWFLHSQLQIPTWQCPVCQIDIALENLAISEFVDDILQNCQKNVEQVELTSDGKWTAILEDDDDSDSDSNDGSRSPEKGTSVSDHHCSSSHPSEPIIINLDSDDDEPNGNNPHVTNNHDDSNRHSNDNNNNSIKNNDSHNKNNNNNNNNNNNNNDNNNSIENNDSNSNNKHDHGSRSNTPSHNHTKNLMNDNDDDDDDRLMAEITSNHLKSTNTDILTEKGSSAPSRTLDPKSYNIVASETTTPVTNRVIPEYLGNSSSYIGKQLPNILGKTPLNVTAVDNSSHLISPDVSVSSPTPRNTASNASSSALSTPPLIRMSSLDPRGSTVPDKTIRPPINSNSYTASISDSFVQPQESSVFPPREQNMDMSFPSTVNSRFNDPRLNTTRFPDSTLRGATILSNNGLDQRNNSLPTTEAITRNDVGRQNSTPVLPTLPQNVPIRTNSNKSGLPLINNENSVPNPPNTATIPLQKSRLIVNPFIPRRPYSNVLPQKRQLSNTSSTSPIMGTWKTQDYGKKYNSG

Sequence of Siz1^(167–508) (yeast) (Q04195 167-508): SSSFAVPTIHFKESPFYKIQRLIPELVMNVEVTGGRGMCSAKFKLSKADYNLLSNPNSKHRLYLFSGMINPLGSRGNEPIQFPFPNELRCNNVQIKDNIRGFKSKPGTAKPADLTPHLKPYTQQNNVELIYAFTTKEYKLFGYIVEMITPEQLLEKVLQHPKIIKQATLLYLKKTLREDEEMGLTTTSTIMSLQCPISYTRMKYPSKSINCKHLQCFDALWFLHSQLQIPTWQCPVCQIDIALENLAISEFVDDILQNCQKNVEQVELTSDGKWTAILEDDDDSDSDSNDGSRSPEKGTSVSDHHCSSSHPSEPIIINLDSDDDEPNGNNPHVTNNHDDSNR
Sequence of Siz1^(167–449) (yeast) (Q04195 167-449): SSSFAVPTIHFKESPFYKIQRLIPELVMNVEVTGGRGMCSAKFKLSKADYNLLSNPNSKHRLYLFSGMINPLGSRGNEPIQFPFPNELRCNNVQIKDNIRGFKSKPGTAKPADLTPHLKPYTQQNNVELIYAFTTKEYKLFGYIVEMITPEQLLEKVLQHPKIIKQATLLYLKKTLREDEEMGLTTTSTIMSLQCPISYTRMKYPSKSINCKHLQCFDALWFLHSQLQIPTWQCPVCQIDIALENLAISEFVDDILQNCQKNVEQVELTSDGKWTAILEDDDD
Sequence of Siz1^(167–449)-ΔN18Smt3^K19R/D68RΔGG97/98-L-E-His6 (yeast) (Q04195 whole entry, looked up, stated change not applied, tested part not stated): as the sequence (Q04195 whole entry, looked up, stated change not applied, tested part not stated) above
Sequence of Siz1^(167–449)-ΔN18Smt3^K19RΔGG97/98-L-E-His6 (yeast) (Q04195 whole entry, looked up, stated change not applied, tested part not stated): as above

Km of the E2-SUMO thioester, K127 product, no additional SUMO (Siz1^(167–449) (yeast)): 1.23 µM
Km of the E2-SUMO thioester, K127 product, with 1.5-fold excess Δ18Smt3ΔGGHIS (Siz1^(167–449) (yeast)): 1.84 µM
Km of the E2-SUMO thioester, K164 product, no additional SUMO (Siz1^(167–449) (yeast)): 0.91 µM
Km of the E2-SUMO thioester, K164 product, with 1.5-fold excess Δ18Smt3ΔGGHIS (Siz1^(167–449) (yeast)): 1.44 µM
Km of the E2-SUMO thioester, K127 product [1]: 4.4 µM
Km of the E2-SUMO thioester, K164 product [1]: 1.02 µM
Km of the E2-SUMO thioester, K127 product [2]: 0.48 µM
Km of the E2-SUMO thioester, K127 product, no additional SUMO (Siz1^(167–508) (yeast)): 2.34 µM
Km of the E2-SUMO thioester, K127 product, with 1.5-fold excess Δ18Smt3ΔGGHIS (Siz1^(167–508) (yeast)): 1.15 µM
Km of the E2-SUMO thioester, K164 product, no additional SUMO (Siz1^(167–508) (yeast)): 0.91 µM
Km of the E2-SUMO thioester, K127 product [3]: 2.07 µM
Substance: Ubc9^K153R-Smt3^K11C/D68R-Alexa488 thioester (from UniProt P50623 1-157; Q12306 1-101) (complex)
